Laboratory results reported in doi:10.1101/2024.05.06.590709 (bioRxiv, 2024).

Key:
SEC-MALS = biological target: the molecule itself; experiment: SEC-MALS
mass photometry = biological target: the molecule itself; experiment: mass photometry

B1: NIT1 WT (purified recombinant AtNIT1) (enzyme)
chain: MSSTKDMSTVQNATPFNGVAPSTTVRVTIVQSSTVYNDTPATIDKAEKYIVEAASKGAELVLFPEGFIGGYPRGFRFGLAVGVHNEEGRDEFRKYHASAIHVPGPEVARLADVARKNHVYLVMGAIEKEGYTLYCTVLFFSPQGQFLGKHRKLMPTSLERCIWGQGDGSTIPVYDTPIGKLGAAICWENRMPLYRTALYAKGIELYCAPTADGSKEWQSSMLHIAIEGGCFVLSACQFCQRKHFPDHPDYLFTDWYDDKEHDSIVSQGGSVIISPLGQVLAGPNFESEGLVTADIDLGDIARAKLYFDSVGHYSRPDVLHLTVNEHPRKSVTFVTKVEKAEDDSNK
modifications: RED-NHS 2nd Generation dye (in the MST only)
stoichiometry N (SEC-MALS): 20 | stoichiometry N (mass photometry): ≤ 10
